Measured values as given in US20140087995A1 (published 2014).
Numbered stars: 1 amine (or outer) side, 2 acyl side, 3 side chain; on linkers, the order of the positions; unused ones are H or OH. Bridge positions count the residues as written; N and C are the ends. Side chains are listed from the residue outwards. Ends that are not written are not given here. * marks the point of attachment. C20 diacid = O=C(O)CCCCCCCCCCCCCCCCCCC(=O)*; γGlu = O=C(O)[C@H](CCC(=O)[*:2])N[*:1]; AEEA = NCCOCCOCC(=O)O

T1: rat calcitonin receptor (rat, UniProt P32214 25-516)
T1 construct: whole, on cells; Used as membranes prepared from the transfected cells; also called rCTR; rat calcitonin (a) receptor
T1 sequence (looked up): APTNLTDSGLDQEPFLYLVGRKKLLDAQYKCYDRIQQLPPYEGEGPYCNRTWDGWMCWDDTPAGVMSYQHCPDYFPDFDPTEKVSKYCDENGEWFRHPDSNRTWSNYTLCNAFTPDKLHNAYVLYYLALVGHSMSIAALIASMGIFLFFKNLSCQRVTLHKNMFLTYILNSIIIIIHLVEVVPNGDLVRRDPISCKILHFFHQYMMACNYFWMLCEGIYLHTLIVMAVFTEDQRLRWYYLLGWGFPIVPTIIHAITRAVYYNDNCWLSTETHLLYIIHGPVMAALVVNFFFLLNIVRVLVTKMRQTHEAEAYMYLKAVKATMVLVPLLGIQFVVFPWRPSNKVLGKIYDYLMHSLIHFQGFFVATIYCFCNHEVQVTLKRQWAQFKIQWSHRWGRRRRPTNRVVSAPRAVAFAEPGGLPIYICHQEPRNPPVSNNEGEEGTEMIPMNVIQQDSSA

T2: human calcitonin receptor (human, UniProt P30988 25-474)
T2 construct: whole, on cells; Used as membranes prepared from the transfected cells (Assay VII); also called hCTR; hCT
T2 sequence (looked up): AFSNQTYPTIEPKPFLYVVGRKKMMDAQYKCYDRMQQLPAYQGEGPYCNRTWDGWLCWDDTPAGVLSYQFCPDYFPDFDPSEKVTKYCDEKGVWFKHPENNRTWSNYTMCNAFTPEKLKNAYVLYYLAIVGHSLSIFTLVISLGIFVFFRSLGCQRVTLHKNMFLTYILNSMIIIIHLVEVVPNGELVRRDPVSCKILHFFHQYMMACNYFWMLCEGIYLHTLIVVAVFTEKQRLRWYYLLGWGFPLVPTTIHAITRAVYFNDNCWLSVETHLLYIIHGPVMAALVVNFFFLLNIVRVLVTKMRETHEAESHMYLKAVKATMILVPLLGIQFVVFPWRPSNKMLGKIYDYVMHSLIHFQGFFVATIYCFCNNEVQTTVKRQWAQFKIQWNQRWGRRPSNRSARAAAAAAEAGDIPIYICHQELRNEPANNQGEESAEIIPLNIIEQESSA

T3: rat amylin receptor (rat calcitonin receptor + rat RAMP 3) (rat, UniProt P32214 25-516; Q9JJ73 23-147)
T3 construct: whole, on cells; Used as membranes prepared from the transfected cells; also called rAmylin-R; rat amylin 3(a) receptor
T3 sequence (looked up) 1: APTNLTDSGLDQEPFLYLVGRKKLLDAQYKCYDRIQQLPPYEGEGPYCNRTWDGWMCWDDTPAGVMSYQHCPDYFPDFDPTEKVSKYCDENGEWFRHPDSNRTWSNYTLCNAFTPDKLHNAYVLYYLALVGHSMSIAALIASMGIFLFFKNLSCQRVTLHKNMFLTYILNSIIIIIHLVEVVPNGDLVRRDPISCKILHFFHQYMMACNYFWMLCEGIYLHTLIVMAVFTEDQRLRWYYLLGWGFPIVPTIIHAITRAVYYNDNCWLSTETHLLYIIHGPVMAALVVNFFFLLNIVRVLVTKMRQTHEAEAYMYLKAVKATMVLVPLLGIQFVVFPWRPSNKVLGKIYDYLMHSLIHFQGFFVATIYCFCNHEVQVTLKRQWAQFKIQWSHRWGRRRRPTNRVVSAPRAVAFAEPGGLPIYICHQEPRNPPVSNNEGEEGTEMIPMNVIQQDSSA
T3 sequence (looked up) 2: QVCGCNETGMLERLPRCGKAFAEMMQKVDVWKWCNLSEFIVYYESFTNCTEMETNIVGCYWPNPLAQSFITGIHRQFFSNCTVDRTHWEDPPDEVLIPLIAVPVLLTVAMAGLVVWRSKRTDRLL


Assays:
rat calcitonin receptor [1] = molecular target: T1, rat calcitonin receptor; test: ratio IC50 rat calcitonin receptor / IC50 rat amylin receptor (Assays VIII and VI)
[2] = molecular target: T2, human calcitonin receptor; test: ratio IC50 human calcitonin receptor / IC50 human amylin receptor (Assays VII and V)
Method in brief: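 IC₅₀ values were derived by one-site competition analysis of SPA counts. Cell membranes (35 ng/μL) with SPA beads were incubated with test compounds for 120 min at 25° C in Hepes buffer, pH 7.4, containing CaCl2, MgCl₂, OA and Tween20.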

rat calcitonin receptor [3] = molecular target: T1, rat calcitonin receptor; test: SPA competition with 125I-calcitonin, membranes of BHK cells with rat calcitonin receptor (Assay VIII)
[4] = molecular target: T3, rat amylin receptor (rat calcitonin …); test: SPA competition with 125I-rat amylin, membranes of BHK cells with rat calcitonin receptor + rat RAMP3 (Assay VI)

Row | Binder | Ratio rCT/rAmylin binding (rat calcitonin receptor [1]) | Ratio hCT/hAmylin binding [2] | IC50 (rat calcitonin receptor [3]) [nM] | IC50 [4] [nM]
1 | {C20 diacid-γGlu}-KCNTATCATQRLAHFLRHSSPNFGAIPSSTNVGSETY-NH2 (disulfide 2-7; SMILES CC[C@H](C)[C@H](NC(=O)[C@H](C)NC(=O)CNC(=O)[C@H](Cc1ccccc1)NC(=O)[C@H](CC(N)=O)NC(=O)[C@@H]1CCCN1C(=O)[C@H](CO)NC(=O)[C@H](CO)NC(=O)[C@H](Cc1c[nH]cn1)NC(=O)[C@H](CCCNC(=N)N)NC(=O)[C@H](CC(C)C)NC(=O)[C@H](Cc1ccccc1)NC(=O)[C@H](Cc1c[nH]cn1)NC(=O)[C@H](C)NC(=O)[C@H](CC(C)C)NC(=O)[C@H](CCCNC(=N)N)NC(=O)[C@H](CCC(N)=O)NC(=O)[C@@H](NC(=O)[C@H](C)NC(=O)[C@@H]1CSSC[C@H](NC(=O)[C@H](CCCCN)NC(=O)CC[C@H](NC(=O)CCCCCCCCCCCCCCCCCCC(=O)O)C(=O)O)C(=O)N[C@@H](CC(N)=O)C(=O)N[C@@H]([C@@H](C)O)C(=O)N[C@@H](C)C(=O)N[C@@H]([C@@H](C)O)C(=O)N1)[C@@H](C)O)C(=O)N1CCC[C@H]1C(=O)N[C@@H](CO)C(=O)N[C@@H](CO)C(=O)N[C@H](C(=O)N[C@@H](CC(N)=O)C(=O)N[C@H](C(=O)NCC(=O)N[C@@H](CO)C(=O)N[C@@H](CCC(=O)O)C(=O)N[C@H](C(=O)N[C@@H](Cc1ccc(O)cc1)C(N)=O)[C@@H](C)O)C(C)C)[C@@H](C)O, Derivative of human amylin; also called compound 30) | 36.1 | 23.6 | 114 | 3.14
2 | {C20 diacid-γGlu}-KCNTATCATQRLAEFLRHSSPNFGAIPSSTNVGSETY-NH2 (disulfide 2-7; SMILES CC[C@H](C)[C@H](NC(=O)[C@H](C)NC(=O)CNC(=O)[C@H](Cc1ccccc1)NC(=O)[C@H](CC(N)=O)NC(=O)[C@@H]1CCCN1C(=O)[C@H](CO)NC(=O)[C@H](CO)NC(=O)[C@H](Cc1c[nH]cn1)NC(=O)[C@H](CCCNC(=N)N)NC(=O)[C@H](CC(C)C)NC(=O)[C@H](Cc1ccccc1)NC(=O)[C@H](CCC(=O)O)NC(=O)[C@H](C)NC(=O)[C@H](CC(C)C)NC(=O)[C@H](CCCNC(=N)N)NC(=O)[C@H](CCC(N)=O)NC(=O)[C@@H](NC(=O)[C@H](C)NC(=O)[C@@H]1CSSC[C@H](NC(=O)[C@H](CCCCN)NC(=O)CC[C@H](NC(=O)CCCCCCCCCCCCCCCCCCC(=O)O)C(=O)O)C(=O)N[C@@H](CC(N)=O)C(=O)N[C@@H]([C@@H](C)O)C(=O)N[C@@H](C)C(=O)N[C@@H]([C@@H](C)O)C(=O)N1)[C@@H](C)O)C(=O)N1CCC[C@H]1C(=O)N[C@@H](CO)C(=O)N[C@@H](CO)C(=O)N[C@H](C(=O)N[C@@H](CC(N)=O)C(=O)N[C@H](C(=O)NCC(=O)N[C@@H](CO)C(=O)N[C@@H](CCC(=O)O)C(=O)N[C@H](C(=O)N[C@@H](Cc1ccc(O)cc1)C(N)=O)[C@@H](C)O)C(C)C)[C@@H](C)O, Derivative of human amylin; also called compound 22) | 28.5 | 12.3 | 62.5 | 2.19
3 | K([AEEA-AEEA-γGlu-C20 diacid])CNTATCATQRLANFLRHSSPNFGAIPSSTNVGSETY-NH2 (disulfide 2-7; N-terminus assumed; SMILES CC[C@H](C)[C@H](NC(=O)[C@H](C)NC(=O)CNC(=O)[C@H](Cc1ccccc1)NC(=O)[C@H](CC(N)=O)NC(=O)[C@@H]1CCCN1C(=O)[C@H](CO)NC(=O)[C@H](CO)NC(=O)[C@H](Cc1c[nH]cn1)NC(=O)[C@H](CCCNC(=N)N)NC(=O)[C@H](CC(C)C)NC(=O)[C@H](Cc1ccccc1)NC(=O)[C@H](CC(N)=O)NC(=O)[C@H](C)NC(=O)[C@H](CC(C)C)NC(=O)[C@H](CCCNC(=N)N)NC(=O)[C@H](CCC(N)=O)NC(=O)[C@@H](NC(=O)[C@H](C)NC(=O)[C@@H]1CSSC[C@H](NC(=O)[C@@H](N)CCCCNC(=O)COCCOCCNC(=O)COCCOCCNC(=O)CC[C@H](NC(=O)CCCCCCCCCCCCCCCCCCC(=O)O)C(=O)O)C(=O)N[C@@H](CC(N)=O)C(=O)N[C@@H]([C@@H](C)O)C(=O)N[C@@H](C)C(=O)N[C@@H]([C@@H](C)O)C(=O)N1)[C@@H](C)O)C(=O)N1CCC[C@H]1C(=O)N[C@@H](CO)C(=O)N[C@@H](CO)C(=O)N[C@H](C(=O)N[C@@H](CC(N)=O)C(=O)N[C@H](C(=O)NCC(=O)N[C@@H](CO)C(=O)N[C@@H](CCC(=O)O)C(=O)N[C@H](C(=O)N[C@@H](Cc1ccc(O)cc1)C(N)=O)[C@@H](C)O)C(C)C)[C@@H](C)O, Derivative of human amylin; also called compound 25) | 37.7 | 56.5 | 131 | 3.48
4 | K([AEEA-γGlu-C20 diacid])CNTATCATQRLANFLRHSSPNFGAIPSSTNVGSETY-NH2 (disulfide 2-7; N-terminus assumed; SMILES CC[C@H](C)[C@H](NC(=O)[C@H](C)NC(=O)CNC(=O)[C@H](Cc1ccccc1)NC(=O)[C@H](CC(N)=O)NC(=O)[C@@H]1CCCN1C(=O)[C@H](CO)NC(=O)[C@H](CO)NC(=O)[C@H](Cc1c[nH]cn1)NC(=O)[C@H](CCCNC(=N)N)NC(=O)[C@H](CC(C)C)NC(=O)[C@H](Cc1ccccc1)NC(=O)[C@H](CC(N)=O)NC(=O)[C@H](C)NC(=O)[C@H](CC(C)C)NC(=O)[C@H](CCCNC(=N)N)NC(=O)[C@H](CCC(N)=O)NC(=O)[C@@H](NC(=O)[C@H](C)NC(=O)[C@@H]1CSSC[C@H](NC(=O)[C@@H](N)CCCCNC(=O)COCCOCCNC(=O)CC[C@H](NC(=O)CCCCCCCCCCCCCCCCCCC(=O)O)C(=O)O)C(=O)N[C@@H](CC(N)=O)C(=O)N[C@@H]([C@@H](C)O)C(=O)N[C@@H](C)C(=O)N[C@@H]([C@@H](C)O)C(=O)N1)[C@@H](C)O)C(=O)N1CCC[C@H]1C(=O)N[C@@H](CO)C(=O)N[C@@H](CO)C(=O)N[C@H](C(=O)N[C@@H](CC(N)=O)C(=O)N[C@H](C(=O)NCC(=O)N[C@@H](CO)C(=O)N[C@@H](CCC(=O)O)C(=O)N[C@H](C(=O)N[C@@H](Cc1ccc(O)cc1)C(N)=O)[C@@H](C)O)C(C)C)[C@@H](C)O, Derivative of human amylin; also called compound 26) | 309 | 47.5 | 152 | 0.491
5 | K([AEEA-γGlu-C20 diacid])CNTATCATQRLANFLRHSSPNFGAIPSSTNVGSNTY-NH2 (disulfide 2-7; N-terminus assumed; SMILES CC[C@H](C)[C@H](NC(=O)[C@H](C)NC(=O)CNC(=O)[C@H](Cc1ccccc1)NC(=O)[C@H](CC(N)=O)NC(=O)[C@@H]1CCCN1C(=O)[C@H](CO)NC(=O)[C@H](CO)NC(=O)[C@H](Cc1c[nH]cn1)NC(=O)[C@H](CCCNC(=N)N)NC(=O)[C@H](CC(C)C)NC(=O)[C@H](Cc1ccccc1)NC(=O)[C@H](CC(N)=O)NC(=O)[C@H](C)NC(=O)[C@H](CC(C)C)NC(=O)[C@H](CCCNC(=N)N)NC(=O)[C@H](CCC(N)=O)NC(=O)[C@@H](NC(=O)[C@H](C)NC(=O)[C@@H]1CSSC[C@H](NC(=O)[C@@H](N)CCCCNC(=O)COCCOCCNC(=O)CC[C@H](NC(=O)CCCCCCCCCCCCCCCCCCC(=O)O)C(=O)O)C(=O)N[C@@H](CC(N)=O)C(=O)N[C@@H]([C@@H](C)O)C(=O)N[C@@H](C)C(=O)N[C@@H]([C@@H](C)O)C(=O)N1)[C@@H](C)O)C(=O)N1CCC[C@H]1C(=O)N[C@@H](CO)C(=O)N[C@@H](CO)C(=O)N[C@H](C(=O)N[C@@H](CC(N)=O)C(=O)N[C@H](C(=O)NCC(=O)N[C@@H](CO)C(=O)N[C@@H](CC(N)=O)C(=O)N[C@H](C(=O)N[C@@H](Cc1ccc(O)cc1)C(N)=O)[C@@H](C)O)C(C)C)[C@@H](C)O, Derivative of human amylin; also called compound 41) | 54 | 49.9 | 74.1 | 1.37
